# From US20140242093A1, “METHODS AND COMPOSITIONS FOR MODULATING THE INNATE IMMUNE RESPONSE AND/OR MYOGENESIS IN A MAMMALIAN SUBJECT” (FRED HUTCHINSON CANCER RESEARCH CENTER, priority 2011, published 2014)
# System: control human primary myoblasts
# Test: Expression microarray of primary myoblasts transduced with lentivirus carrying DUX4-fl, DUX4-s or GFP
# Description: Primary human myoblasts were collected and cultured as previously described (Snider et al., 2010). Primary myoblasts were maintained at or below 70% confluency for proliferation. For differentiation, cells were allowed to reach 95-100% confluency in growth medium. Once confluency was reached, the cells were changed to differentiation medium (F10 media supplemented with 1% horse serum, 10 μg/mL insulin, and 10 μg/mL transferrin, penicillin/streptomycin) and maintained for 4 days. Human RD cells were grown in DMEM in 10% bovine calf serum (Hyclone) and penicillin/streptomycin. The primary myoblasts were transduced with lentivirus carrying DUX-fl, DUX4- or GFP (MOI=15).
# Expression microarrays were performed on the transduced cells at 24 hours after transduction as follows. […] Samples were analyzed by Illumina Human Whole Genome microarrays. Probe intensities were corrected, normalized, and summarized by the Lumi package of Bioconductor (Du et al., 2008). Differentially expressed genes were identified by the LIMMA package of Bioconductor (Wettenhall and Smyth, 2004). Gene set enrichment analysis (GSEA) was performed using the Bioconductor GOstats package (Falcon and Gentleman, 2007).
molecule,measurement,setting,value
"DUX4-s: short splice form of DUX4 (SEQ ID NO:112), keeps the double-homeobox domains, lacks the C-terminal activation domain (protein, listed as Homo sapiens) MALPTPSDSTLPAEARGRGRRRRLVWTPSQSEALRACFERNPYPGIATRERLAQAIGIPEPRVQIWFQNERSRQLRQHRRESRPWPGRRGPPEGRRKRTAVTGSQTALLLRAFEKDRFPGIAAREELARETGLPESRIQIWFQNRRARHPGQGGRAPAQV",fc of XPO1 (expression array),Refseq NM_003400.3,−0.2325
same,fc of ZFP36 (expression array),Refseq NM_003407.2,0.2317
same,ZKSCAN1 fc,Refseq NM_003439.1,0.3802
same,fc of Cxorfl2 (expression array),Refseq NM_003492.1,0.03462
same,fc of TAGLN2 (expression array),Refseq NM_003564.1,0.05495
same,fc of EEA1 (expression array),Refseq NM_003566.2,1.034
same,IFITM1 expression fc,"Refseq NM_003641.3, cultured human skeletal muscle",0.3441
same,fc of VAMP8 (expression array),Refseq NM_003761.2,0.002691
same,fc of VAMP4 (expression array),Refseq NM_003762.3,0.4731
same,RNGTT expression fc,Refseq NM_003800.3,−0.5916
same,RIPK1 fc,Refseq NM_003804.3,−0.2407
same,TNFSF10 fc,Refseq NM_003810.2,2.972
same,TNFRSF14 expression fc,"Refseq NM_003820.2, cultured human skeletal muscle",0.5666
same,fc of RIOK3 (expression array),Refseq NM_003831.2,1.133
same,TNFRSF10A fc,Refseq NM_003844.2,0.8441
same,PEX11B fc,Refseq NM_003846.1,−0.2212
same,CES2 expression fc,"Refseq NM_003869.4, cultured human skeletal muscle",0.06106
same,CFLAR expression fc,"Refseq NM_003879.3, cultured human skeletal muscle",0.5313
same,fc of ASAP2 (expression array),Refseq NM_003887.2,−0.3423
same,CCNA1 expression fc,Refseq NM_003914.2,1.884
same,fc of USP13 (expression array),Refseq NM_003940.2,−1.038
same,NPR2 fc,Refseq NM_003995.3,−0.04506
same,fc of OSMR (expression array),Refseq NM_003999.1,1.118
same,CHI3L2 expression fc,"Refseq NM_004000.2, cultured human skeletal muscle",0.2573
same,IRF7 expression fc,"Refseq NM_004029.2, cultured human skeletal muscle",1.137
same,CRY1 expression fc,Refseq NM_004075.2,−0.1268
same,PSPN expression fc,Refseq NM_004158.2,−0.03876
same,BEST1 fc,Refseq NM_004183.2,0.2661
same,UBE2L6 expression fc,"Refseq NM_004223.3, cultured human skeletal muscle",0.5808
same,fc of STK17B (expression array),Refseq NM_004226.2,1.309
same,fc of SLC9A3R1 (expression array),Refseq NM_004252.2,−0.06339
same,BST2 expression fc,"Refseq NM_004335.2, cultured human skeletal muscle",0.21
same,CREB1 fc,Refseq NM_004379.2,−0.08534
same,fc of HOXB7 (expression array),Refseq NM_004502.3,−0.06124
same,SP110 expression fc,"Refseq NM_004510.2, cultured human skeletal muscle",1.154
same,PSPH fc,Refseq NM_004577.3,0.005654
same,XPC expression fc,"Refseq NM_004628.3, cultured human skeletal muscle",0.2629
same,PABPN1 expression fc,Refseq NM_004643.1,−0.2585
same,MAP3K6 fc,Refseq NM_004672.3,−0.2268
same,fc of SLC16A5 (expression array),Refseq NM_004695.2,−0.03968
same,fc of SFRS2IP (expression array),Refseq NM_004719.2,−1.068
same,fc of ARHGEF2 (expression array),Refseq NM_004723.2,−0.07136
same,TIAF1 fc,Refseq NM_004740.3,−0.5294
same,NOLC1 expression fc,Refseq NM_004741.1,0.4977
same,SLIT2 expression fc,Refseq NM_004787.1,0.8501
same,LPXN fc,Refseq NM_004811.1,−0.0176
same,PEX16 fc,Refseq NM_004813.1,0.02427
same,C9orf61 expression fc,Refseq NM_004816.2,−0.2563
same,MED26 expression fc,Refseq NM_004831.3,0.1371
same,fc of GSTO1 (expression array),Refseq NM_004832.1,0.3142
same,fc of LITAF (expression array),Refseq NM_004862.2,1.12
same,fc of SCAMPI (expression array),Refseq NM_004866.4,1.369
same,fc of APBA3 (expression array),Refseq NM_004886.3,0.001776
same,SERPINI1 expression fc,Refseq NM_005025.3,0.0354
same,TRIM25 expression fc,"Refseq NM_005082.4, cultured human skeletal muscle",0.5139
same,SFRS17A expression fc,Refseq NM_005088.2,0.2404
same,ISG15 expression fc,"Refseq NM_005101.1, cultured human skeletal muscle",0.128
same,MVP fc,Refseq NM_005115.3,−0.1162
same,MED13 expression fc,Refseq NM_005121.2,0.0264
same,fc of REC8 (expression array),Refseq NM_005132.2,−0.244
same,ATP6V0A1 fc,Refseq NM_005177.3,−0.04497
same,CEBPB expression fc,"Refseq NM_005194.2, cultured human skeletal muscle",0.2783
same,ETS1 fc,Refseq NM_005238.2,−0.1783
same,FAT1 fc,Refseq NM_005245.3,0.4055
same,GPR37 expression fc,Refseq NM_005302.2,0.2151
same,H1F0 expression fc,"Refseq NM_005318.2, cultured human skeletal muscle",0.5004
same,HSPA1A expression fc,Refseq NM_005345.4,−0.02035
same,HSPA1B expression fc,Refseq NM_005346.3,0.359
same,NEFM expression fc,Refseq NM_005382.1,0.8485
same,SHMT2 fc,Refseq NM_005412.4,0.2615
same,STAT2 expression fc,"Refseq NM_005419.2, cultured human skeletal muscle",0.1861
same,EOMES expression fc,Refseq NM_005442.2,0.06484
same,TOM1 fc,Refseq NM_005488.1,4.81E−05
same,HLA-B expression fc,"Refseq NM_005514.5, cultured human skeletal muscle",0.3367
same,HLA-E fc,Refseq NM_005516.4,0.8147
same,IFI16 expression fc,"Refseq NM_005531.1, cultured human skeletal muscle",0.6846
same,IFI27 expression fc,"Refseq NM_005532.3, cultured human skeletal muscle",0.2746
same,IFI35 expression fc,"Refseq NM_005533.2, cultured human skeletal muscle",0.9169
same,IRS1 fc,Refseq NM_005544.1,0.2753
same,KLC1 expression fc,Refseq NM_005552.4,−0.06609
same,RGS4 expression fc,Refseq NM_005613.3,−0.4837
same,SGK expression fc,Refseq NM_005627.2,−0.1104
same,TAF4B expression fc,Refseq NM_005640.1,−0.0444
same,fc of TERF2 (expression array),Refseq NM_005652.2,0.3314
same,fc of REEP5 (expression array),Refseq NM_005669.4,−1.138
same,fc of HIPK3 (expression array),Refseq NM_005734.3,1.555
same,ARIH1 expression fc,Refseq NM_005744.2,0.784
same,fc of NAMPT (expression array),Refseq NM_005746.2,1.21
same,LHFPL2 fc,Refseq NM_005779.1,−0.1437
same,STX6 expression fc,Refseq NM_005819.4,−0.4696
same,fc of RCAN2 (expression array),Refseq NM_005822.2,−1.005
same,MFGE8 fc,Refseq NM_005928.1,0.03254
same,MT1X expression fc,"Refseq NM_005952.2, cultured human skeletal muscle",0.3162
same,SNAI1 expression fc,Refseq NM_005985.2,−0.03657
same,RBM12 expression fc,Refseq NM_006047.4,−0.3748
same,TRIM22 expression fc,"Refseq NM_006074.3, cultured human skeletal muscle",−0.01965
same,CBARA1 expression fc,Refseq NM_006077.2,−0.1543
same,TUBB2C expression fc,Refseq NM_006088.5,−0.5391
same,LASP1 fc,Refseq NM_006148.1,−0.4552
same,NFE2L2 fc,Refseq NM_006164.2,0.329
same,OAS3 expression fc,"Refseq NM_006187.2, cultured human skeletal muscle",0.8654
same,fc of PDGFRL (expression array),Refseq NM_006207.1,1.203
same,PSME1 fc,Refseq NM_006263.2,0.2775
same,STK3 expression fc,Refseq NM_006281.2,−0.215
same,THY1 fc,Refseq NM_006288.2,−0.6444
same,TNFAIP3 expression fc,"Refseq NM_006290.2, cultured human skeletal muscle",0.2793
same,HSPB3 expression fc,Refseq NM_006308.1,−0.7934
same,NXF1 expression fc,Refseq NM_006362.4,−0.3456
same,fc of ATG7 (expression array),Refseq NM_006395.1,0.2083
same,SLC34A2 expression fc,Refseq NM_006424.2,−0.03231
same,TXNRD2 fc,Refseq NM_006440.3,−0.1666
same,fc of MXD4 (expression array),Refseq NM_006454.2,−0.9168
same,ARID3B expression fc,Refseq NM_006465.2,−0.07455
same,TXNIP expression fc,"Refseq NM_006472.2, cultured human skeletal muscle",−0.01014
same,ZNF217 expression fc,Refseq NM_006526.2,−0.3262
same,FAM189B fc,Refseq NM_006589.2,0.04019
same,fc of TCFL5 (expression array),Refseq NM_006602.2,0.0336
same,RFPL2 expression fc,Refseq NM_006605.1,0.03122
same,fc of NES (expression array),Refseq NM_006617.1,−1.118
same,HSPH1 expression fc,Refseq NM_006644.2,−0.4879
same,HCP5 fc,Refseq NM_006674.2,0.1443
same,UGP2 fc,Refseq NM_006759.3,0.1108
same,IFI44L expression fc,"Refseq NM_006820.1, cultured human skeletal muscle",0.4651
same,fc of CKAP4 (expression array),Refseq NM_006825.2,0.03538
same,fc of ILVBL (expression array),Refseq NM_006844.3,−0.2803
same,KDELR3 fc,Refseq NM_006855.2,−0.444
same,fc of GMPR (expression array),Refseq NM_006877.2,1.36
same,SLC2A3 expression fc,Refseq NM_006931.1,0.1012
same,fc of HSPA13 (expression array),Refseq NM_006948.4,1.34
same,ZBTB25 fc,Refseq NM_006977.2,0.3463
same,ADAMTS1 fc,Refseq NM_006988.3,0.1765
same,C1Oorf10 expression fc,"Refseq NM_007021.2, cultured human skeletal muscle",0.1432
same,fc of DNAJB4 (expression array),Refseq NM_007034.3,0.413
same,KATNA1 expression fc,Refseq NM_007044.2,0.1132
same,UBL3 expression fc,Refseq NM_007106.2,−0.807
same,TESK2 expression fc,Refseq NM_007170.2,0.1269
same,NUP50 expression fc,Refseq NM_007172.3,1.035
same,fc of PACSIN2 (expression array),Refseq NM_007229.1,−0.3253
same,DUSP12 expression fc,Refseq NM_007240.1,0.09869
